For test [1], the target named is T1, 10xHis-mRuby2-Spt6 (239-1451) (S. cerevisiae, UniProt P23615 239-1451).
T1 sequence (looked up): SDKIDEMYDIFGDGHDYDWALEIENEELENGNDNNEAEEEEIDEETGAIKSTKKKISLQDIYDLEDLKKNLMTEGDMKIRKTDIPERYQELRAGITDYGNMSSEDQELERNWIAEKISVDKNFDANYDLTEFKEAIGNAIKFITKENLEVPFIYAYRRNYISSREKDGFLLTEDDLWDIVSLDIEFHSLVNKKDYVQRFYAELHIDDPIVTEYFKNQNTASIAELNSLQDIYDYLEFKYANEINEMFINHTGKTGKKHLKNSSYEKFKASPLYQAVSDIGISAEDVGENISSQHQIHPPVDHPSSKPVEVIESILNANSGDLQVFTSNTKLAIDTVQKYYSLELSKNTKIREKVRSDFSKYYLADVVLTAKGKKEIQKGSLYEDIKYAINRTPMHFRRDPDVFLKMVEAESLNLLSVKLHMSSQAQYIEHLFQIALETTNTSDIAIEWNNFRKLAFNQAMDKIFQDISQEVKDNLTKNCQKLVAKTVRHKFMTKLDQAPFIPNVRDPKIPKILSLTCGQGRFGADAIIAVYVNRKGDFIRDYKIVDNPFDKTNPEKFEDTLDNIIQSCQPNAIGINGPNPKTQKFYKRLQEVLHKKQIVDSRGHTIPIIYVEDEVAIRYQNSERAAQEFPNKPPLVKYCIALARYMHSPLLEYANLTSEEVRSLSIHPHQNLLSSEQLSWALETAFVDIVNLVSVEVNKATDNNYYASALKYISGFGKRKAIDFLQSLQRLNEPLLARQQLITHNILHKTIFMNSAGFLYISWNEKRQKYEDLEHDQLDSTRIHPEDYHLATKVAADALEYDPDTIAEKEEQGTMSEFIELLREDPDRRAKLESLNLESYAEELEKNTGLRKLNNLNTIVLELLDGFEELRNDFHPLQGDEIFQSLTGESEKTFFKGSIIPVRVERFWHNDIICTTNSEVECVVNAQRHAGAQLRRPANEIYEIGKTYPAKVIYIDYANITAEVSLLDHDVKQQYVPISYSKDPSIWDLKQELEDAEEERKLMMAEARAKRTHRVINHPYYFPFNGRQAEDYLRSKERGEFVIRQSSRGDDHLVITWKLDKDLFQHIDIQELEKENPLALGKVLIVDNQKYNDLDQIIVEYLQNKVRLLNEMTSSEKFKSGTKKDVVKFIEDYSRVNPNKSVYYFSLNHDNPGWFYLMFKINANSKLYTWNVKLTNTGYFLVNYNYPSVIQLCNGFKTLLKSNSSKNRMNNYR
In words: native gel or EMSA. A general note: A gel shift assay detects complexes by their altered migration in electrophoresis.

Test [2] addresses T2, Spt6 (239-1451), untagged (S. cerevisiae, UniProt P23615 239-1451).
T2 sequence (looked up): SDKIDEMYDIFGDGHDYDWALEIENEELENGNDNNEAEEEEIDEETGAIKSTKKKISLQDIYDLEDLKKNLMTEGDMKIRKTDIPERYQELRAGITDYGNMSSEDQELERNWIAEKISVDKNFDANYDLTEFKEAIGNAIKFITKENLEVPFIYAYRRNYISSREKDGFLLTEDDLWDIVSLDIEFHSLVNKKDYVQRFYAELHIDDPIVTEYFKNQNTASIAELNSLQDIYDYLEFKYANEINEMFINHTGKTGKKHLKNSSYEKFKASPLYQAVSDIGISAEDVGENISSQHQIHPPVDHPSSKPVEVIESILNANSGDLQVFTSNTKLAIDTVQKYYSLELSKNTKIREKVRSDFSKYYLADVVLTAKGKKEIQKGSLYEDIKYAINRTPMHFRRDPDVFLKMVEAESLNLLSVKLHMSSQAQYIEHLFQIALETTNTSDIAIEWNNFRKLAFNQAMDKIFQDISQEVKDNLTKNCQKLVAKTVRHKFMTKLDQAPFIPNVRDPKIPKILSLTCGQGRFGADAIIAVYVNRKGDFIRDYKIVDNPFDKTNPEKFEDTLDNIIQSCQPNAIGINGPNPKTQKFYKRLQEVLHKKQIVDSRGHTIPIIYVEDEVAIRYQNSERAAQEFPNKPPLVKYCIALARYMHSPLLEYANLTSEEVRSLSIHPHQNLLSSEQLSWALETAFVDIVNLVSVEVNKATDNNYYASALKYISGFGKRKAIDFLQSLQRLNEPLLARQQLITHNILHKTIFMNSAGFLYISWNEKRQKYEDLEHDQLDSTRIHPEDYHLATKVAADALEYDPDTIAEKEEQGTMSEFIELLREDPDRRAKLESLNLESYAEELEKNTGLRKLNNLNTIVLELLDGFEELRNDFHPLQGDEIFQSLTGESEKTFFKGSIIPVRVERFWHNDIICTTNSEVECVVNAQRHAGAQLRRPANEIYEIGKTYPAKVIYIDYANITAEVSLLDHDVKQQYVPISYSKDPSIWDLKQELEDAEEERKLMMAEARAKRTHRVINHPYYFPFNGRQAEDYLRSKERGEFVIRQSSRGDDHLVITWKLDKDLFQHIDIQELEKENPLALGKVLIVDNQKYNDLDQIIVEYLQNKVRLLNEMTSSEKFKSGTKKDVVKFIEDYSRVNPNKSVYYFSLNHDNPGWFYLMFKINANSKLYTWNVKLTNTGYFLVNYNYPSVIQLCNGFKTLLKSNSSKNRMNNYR
In words: fluorescence polarisation. A general note: In fluorescence polarisation assays a small probe gives low polarisation when free and higher when bound to something large.

B1: 10xHis-mClover-Cdc73 (full-length Cdc73) (natural protein, S. cerevisiae, UniProt Q06697 1-393, looked up)
chain: MANSLDRLREHLKNGDKLVLKNNEGQSTDDITKATMVETLSSDGSTQDSFPLNEETEIEIDGSLVQLRIIVHCWMNKDSSAADYLADCQNKQLTNVSFLQRTDLINWLSGNTESSQYLKAPGQKGETSDKVDIENKTLAGELSTVKSTTSASLENDSEVSDPVVVETMKHERILVDHNSALRGAKPINFGYLIKDAELKLVQSIKGSLRGSKLPPGHKGAHGRISKTNGSSGGPRKDPIILIPSAASSILTVANIKQFLLESKYVNPRNLPSVPNGLVNIEKNFERISRPIRFIIVDNTRMFTKPEYWDRVVAIFTTGHTWQFNNYQWNSPQELFQRCKGYYFHFAGDSVPQHVQQWNVEKVELDKNKRFKDVEVVRYFWHSLEKELISRGYR
Take B1: the values for the Kd in test [1] and in test [2] were roughly 320 nM and 770 nM, respectively.

B2: 10xHis-mClover-Cdc73 with the W321A substitution (natural protein, S. cerevisiae, UniProt Q06697 1-393, looked up)
chain: MANSLDRLREHLKNGDKLVLKNNEGQSTDDITKATMVETLSSDGSTQDSFPLNEETEIEIDGSLVQLRIIVHCWMNKDSSAADYLADCQNKQLTNVSFLQRTDLINWLSGNTESSQYLKAPGQKGETSDKVDIENKTLAGELSTVKSTTSASLENDSEVSDPVVVETMKHERILVDHNSALRGAKPINFGYLIKDAELKLVQSIKGSLRGSKLPPGHKGAHGRISKTNGSSGGPRKDPIILIPSAASSILTVANIKQFLLESKYVNPRNLPSVPNGLVNIEKNFERISRPIRFIIVDNTRMFTKPEYWDRVVAIFTTGHTAQFNNYQWNSPQELFQRCKGYYFHFAGDSVPQHVQQWNVEKVELDKNKRFKDVEVVRYFWHSLEKELISRGYR
As to B2, the binding result in test [1] was “binds”.

Broadly, the Kd is the free concentration of one partner at which half of the binding sites on the other are occupied at equilibrium, for simple one-to-one binding. A lower Kd goes with higher affinity.

For the origin of these results see article doi:10.1101/2022.05.04.490663 (bioRxiv, 2022).
